Test results from US20050282743A1, “Molecular interactions in cells” (Arbor Vita Corporation, priority 2001, published 2005).

Assays:
Test in all cases: G' assay
[1] = molecular target: T1, GST-APXL-1 PDZ domain 1 (Homo sapiens (Human)), Q13796
T1 chain: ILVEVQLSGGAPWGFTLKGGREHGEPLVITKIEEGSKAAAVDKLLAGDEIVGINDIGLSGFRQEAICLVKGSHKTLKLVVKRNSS

[2] = molecular target: T2, GST-FLJ00011 PDZ domain 1 (Homo sapiens (Human)), Q9H5P4
T2 chain: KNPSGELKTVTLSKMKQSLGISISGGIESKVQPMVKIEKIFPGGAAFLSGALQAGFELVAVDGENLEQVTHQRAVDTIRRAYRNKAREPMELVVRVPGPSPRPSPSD

[3] = molecular target: T3, GST-KIAA0807(S) PDZ domain 1 (Homo sapiens (Human)), Q6P0Q8
T3 chain: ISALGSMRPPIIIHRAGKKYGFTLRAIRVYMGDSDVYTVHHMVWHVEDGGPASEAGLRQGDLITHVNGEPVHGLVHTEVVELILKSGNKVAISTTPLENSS

[4] = molecular target: GST-KIAA807 [GST: P08515]
GST-KIAA807 [GST: P08515], sequence (P08515 whole entry, the tested form may be a part): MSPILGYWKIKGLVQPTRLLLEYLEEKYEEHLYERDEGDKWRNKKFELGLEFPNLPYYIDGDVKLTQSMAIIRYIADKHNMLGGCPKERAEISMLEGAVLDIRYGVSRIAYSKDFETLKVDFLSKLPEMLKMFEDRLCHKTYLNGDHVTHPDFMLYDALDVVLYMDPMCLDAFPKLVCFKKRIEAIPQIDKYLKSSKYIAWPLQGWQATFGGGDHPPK

[5] = molecular target: GST-BAI-1 Associated Protein PDZ domain 3 (Homo sapiens (Human)), Q96QZ7
GST-BAI-1 Associated Protein PDZ domain 3 (Homo sapiens (Human)), Q96QZ7, sequence (Q96QZ7 other isoform, or with tags, fused parts or gaps): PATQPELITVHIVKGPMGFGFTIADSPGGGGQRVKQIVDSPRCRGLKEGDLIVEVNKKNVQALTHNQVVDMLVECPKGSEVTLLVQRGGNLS

[6] = molecular target: GST-KIAA1634 PDZ domain 1 (Homo sapiens (Human)), Q5TCQ9
GST-KIAA1634 PDZ domain 1 (Homo sapiens (Human)), Q5TCQ9, sequence (Q5TCQ9 401-502): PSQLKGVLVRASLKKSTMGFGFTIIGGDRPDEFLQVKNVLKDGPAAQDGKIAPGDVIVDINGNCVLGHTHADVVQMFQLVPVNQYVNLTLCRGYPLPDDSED

[7] = molecular target: T4, GST-MINT1 PDZ domains 1, 2, Q02410
T4 chain: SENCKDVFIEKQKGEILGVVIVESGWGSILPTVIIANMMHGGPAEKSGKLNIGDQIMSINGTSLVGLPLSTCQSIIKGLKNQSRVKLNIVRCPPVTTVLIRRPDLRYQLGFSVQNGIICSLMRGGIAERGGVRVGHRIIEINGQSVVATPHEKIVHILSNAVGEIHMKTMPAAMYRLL

[8] = molecular target: GST-BAI-1 Associated Protein PDZ domain 4 (Homo sapiens (Human)), Q96QZ7
GST-BAI-1 Associated Protein PDZ domain 4 (Homo sapiens (Human)), Q96QZ7, sequence (Q96QZ7 other isoform, or with tags, fused parts or gaps): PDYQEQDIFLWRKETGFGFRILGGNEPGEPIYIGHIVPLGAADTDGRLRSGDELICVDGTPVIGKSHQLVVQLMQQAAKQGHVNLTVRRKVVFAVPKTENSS

[9] = molecular target: GST-BAI-1 Associated Protein PDZ domain 5 (Homo sapiens (Human)), Q96QZ7
GST-BAI-1 Associated Protein PDZ domain 5 (Homo sapiens (Human)), Q96QZ7, sequence (Q96QZ7 988-1099): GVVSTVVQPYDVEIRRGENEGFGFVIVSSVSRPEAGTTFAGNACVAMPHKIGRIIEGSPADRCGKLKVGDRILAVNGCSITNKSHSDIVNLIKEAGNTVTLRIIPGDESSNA

[10] = molecular target: GST-DLG1 PDZ domains 1, 2 (Homo sapiens), Q12959
[11] = molecular target: T5, GST-PDZK1 PDZ domains 2, 3, 4, Q5T2W1
T5 chain: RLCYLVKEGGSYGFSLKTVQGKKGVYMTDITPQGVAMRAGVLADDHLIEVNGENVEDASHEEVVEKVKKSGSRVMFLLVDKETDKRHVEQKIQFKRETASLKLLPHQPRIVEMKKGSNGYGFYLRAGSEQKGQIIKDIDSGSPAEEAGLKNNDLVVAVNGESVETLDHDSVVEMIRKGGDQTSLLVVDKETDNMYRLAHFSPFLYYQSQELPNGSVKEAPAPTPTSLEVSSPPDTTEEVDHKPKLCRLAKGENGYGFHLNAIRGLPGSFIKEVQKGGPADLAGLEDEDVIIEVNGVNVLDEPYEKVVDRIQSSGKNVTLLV

[12] = molecular target: T6, GST-MUPP1 PDZ domain 3 (Homo sapiens (Human)), O75970
T6 chain: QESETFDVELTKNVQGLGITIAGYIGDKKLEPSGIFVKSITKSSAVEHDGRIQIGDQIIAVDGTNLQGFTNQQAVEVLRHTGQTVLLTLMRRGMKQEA

[13] = molecular target: T7, GST-MUPP1 PDZ domain 7 (Homo sapiens (Human)), O75970
T7 chain: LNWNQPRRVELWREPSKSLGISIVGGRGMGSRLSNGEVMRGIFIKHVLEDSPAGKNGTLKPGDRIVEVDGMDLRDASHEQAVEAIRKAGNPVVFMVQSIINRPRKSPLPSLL

[14] = molecular target: T8, GST-MUPP1 PDZ domain 9 (Homo sapiens (Human)), O75970
T8 chain: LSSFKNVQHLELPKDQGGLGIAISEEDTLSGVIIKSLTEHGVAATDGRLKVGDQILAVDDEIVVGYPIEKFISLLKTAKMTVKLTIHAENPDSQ

[15] = molecular target: GST-BAI-1 Associated Protein PDZ domain 2 (Mus musculus (Mouse)), Q6RHR9
GST-BAI-1 Associated Protein PDZ domain 2 (Mus musculus (Mouse)), Q6RHR9, sequence (Q6RHR9 455-558): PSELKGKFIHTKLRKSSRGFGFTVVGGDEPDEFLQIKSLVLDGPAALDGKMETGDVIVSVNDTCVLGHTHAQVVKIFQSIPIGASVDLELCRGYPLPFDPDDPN

[16] = molecular target: T9, GST-INADL PDZ domain 8 (Homo sapiens (Human)), Q8NI35
T9 chain: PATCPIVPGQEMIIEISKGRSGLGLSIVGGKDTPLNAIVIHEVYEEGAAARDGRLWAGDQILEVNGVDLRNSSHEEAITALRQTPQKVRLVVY

[17] = molecular target: GST-KIAA0147 PDZ domain 1 (Homo sapiens (Human)), Q14160
GST-KIAA0147 PDZ domain 1 (Homo sapiens (Human)), Q14160, sequence (Q14160 other isoform, or with tags, fused parts or gaps): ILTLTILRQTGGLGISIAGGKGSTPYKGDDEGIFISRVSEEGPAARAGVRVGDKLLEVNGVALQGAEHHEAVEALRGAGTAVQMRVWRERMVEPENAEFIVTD

[18] = molecular target: T10, GST-KIAA0382 PDZ domain 1 (Canis lupus familiaris (Dog) (Canis familiaris)), A0A8I3
T10 chain: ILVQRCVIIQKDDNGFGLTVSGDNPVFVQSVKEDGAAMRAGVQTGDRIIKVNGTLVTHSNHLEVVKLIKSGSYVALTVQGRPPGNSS

[19] = molecular target: T11, GST-KIAA1634 PDZ domain 2 (Homo sapiens (Human)), Q5TCQ9
T11 chain: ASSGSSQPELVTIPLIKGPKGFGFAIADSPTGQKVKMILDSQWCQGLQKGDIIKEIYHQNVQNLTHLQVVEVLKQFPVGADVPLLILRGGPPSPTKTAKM

[20] = molecular target: T12, GST-MUPP1 PDZ domain 10 (Homo sapiens (Human)), O75970
T12 chain: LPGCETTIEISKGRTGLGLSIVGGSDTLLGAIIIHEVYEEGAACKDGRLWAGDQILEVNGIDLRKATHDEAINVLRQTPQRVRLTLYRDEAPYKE

[21] = molecular target: T13, GST-NeDLG PDZ domains 1, 2, Q92796
T13 chain: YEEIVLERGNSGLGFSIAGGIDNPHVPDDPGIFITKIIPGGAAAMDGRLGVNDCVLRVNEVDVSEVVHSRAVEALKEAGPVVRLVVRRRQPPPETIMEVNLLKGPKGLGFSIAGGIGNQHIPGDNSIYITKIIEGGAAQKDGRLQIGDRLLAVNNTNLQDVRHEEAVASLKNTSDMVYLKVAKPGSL

[22] = molecular target: T14, GST-Outer Membrane PDZ domain 1 (Homo sapiens (Human)), P57105
T14 chain: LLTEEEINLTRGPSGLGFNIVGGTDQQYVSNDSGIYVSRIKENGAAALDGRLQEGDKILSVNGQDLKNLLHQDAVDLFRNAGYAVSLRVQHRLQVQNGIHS

[23] = molecular target: GST-PSD95 PDZ domains 1, 2, 3 (Homo sapiens), P78352
GST-PSD95 PDZ domains 1, 2, 3 (Homo sapiens), P78352, sequence (P78352 62-395): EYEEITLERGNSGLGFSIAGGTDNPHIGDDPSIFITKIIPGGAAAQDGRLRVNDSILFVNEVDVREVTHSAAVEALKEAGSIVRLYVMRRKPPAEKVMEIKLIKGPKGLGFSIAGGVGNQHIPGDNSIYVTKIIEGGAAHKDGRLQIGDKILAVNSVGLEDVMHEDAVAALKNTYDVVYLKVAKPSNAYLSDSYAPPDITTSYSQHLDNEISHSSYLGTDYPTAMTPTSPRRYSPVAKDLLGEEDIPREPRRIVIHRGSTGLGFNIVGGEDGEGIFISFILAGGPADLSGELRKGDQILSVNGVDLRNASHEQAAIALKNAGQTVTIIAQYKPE

[24] = molecular target: T15, GST-TIP1 PDZ domain 1 (Table 9 insert) (Homo sapiens (Human)), O14907
T15 chain: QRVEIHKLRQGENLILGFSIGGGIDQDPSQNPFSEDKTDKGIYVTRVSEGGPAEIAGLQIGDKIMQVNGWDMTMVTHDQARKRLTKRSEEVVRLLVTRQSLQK

[25] = molecular target: T16, GST-PTPL1 PDZ domain 4 (Homo sapiens (Human)), Q12923
T16 chain: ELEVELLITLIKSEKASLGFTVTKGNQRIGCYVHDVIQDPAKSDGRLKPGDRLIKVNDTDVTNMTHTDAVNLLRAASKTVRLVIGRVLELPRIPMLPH

[26] = molecular target: T17, GST-KIAA0973 PDZ domain 1 (Homo sapiens (Human)), Q9Y2H9
T17 chain: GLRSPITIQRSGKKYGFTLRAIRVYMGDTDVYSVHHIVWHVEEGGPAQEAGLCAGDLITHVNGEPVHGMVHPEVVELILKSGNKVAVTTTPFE

[27] = molecular target: T18, GST-MINT1 PDZ domain 2 (Mus musculus (Mouse)), B2RUJ5
T18 chain: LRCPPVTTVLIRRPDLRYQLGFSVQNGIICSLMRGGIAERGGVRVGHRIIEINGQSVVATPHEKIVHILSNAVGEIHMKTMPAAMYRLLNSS

[28] = molecular target: T19, GST-FLJ 10324 PDZ domain 1 [GST: P08515]
T19 chain: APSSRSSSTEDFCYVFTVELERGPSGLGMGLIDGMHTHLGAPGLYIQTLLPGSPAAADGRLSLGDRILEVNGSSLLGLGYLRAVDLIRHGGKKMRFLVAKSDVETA

[29] = molecular target: T20, GST-PTPL1 PDZ domain 2 (Homo sapiens (Human)), Q12923
T20 chain: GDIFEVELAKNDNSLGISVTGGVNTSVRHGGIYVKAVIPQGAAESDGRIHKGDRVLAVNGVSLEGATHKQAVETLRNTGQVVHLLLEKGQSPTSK

[30] = molecular target: GST-BAI-1 Associated Protein PDZ domain 6 (Homo sapiens (Human)), Q96QZ7
GST-BAI-1 Associated Protein PDZ domain 6 (Homo sapiens (Human)), Q96QZ7, sequence (Q96QZ7 1143-1233): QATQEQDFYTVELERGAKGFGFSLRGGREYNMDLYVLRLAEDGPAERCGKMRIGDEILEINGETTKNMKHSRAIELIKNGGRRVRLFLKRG

[31] = molecular target: T21, GST-KIAA0380 PDZ domain 1 (Homo sapiens (Human)), O15085
T21 chain: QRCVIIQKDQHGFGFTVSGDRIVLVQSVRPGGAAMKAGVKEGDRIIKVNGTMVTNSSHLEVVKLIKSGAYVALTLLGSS

[32] = molecular target: T22, GST-AIPC PDZ domain 1 (Homo sapiens (Human)), O15018
T22 chain: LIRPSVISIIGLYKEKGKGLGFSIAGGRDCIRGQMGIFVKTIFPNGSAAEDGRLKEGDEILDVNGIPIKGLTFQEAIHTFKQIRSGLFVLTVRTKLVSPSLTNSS
Also: key of the grades not given here.

Work on GTSDMKDLVGNIEQNEHSVI (modifications not checked) [Mannose Receptor] yielded a Classification [1] of 1 A450 class, a Classification [2] of 1 A450 class and a Classification [3] of 1 A450 class. It also gave a Classification [4] of 1 A450 class.

With PGQPPKVKSEFNSYSLTGYV (modifications not checked) [claudin 2] the Classification [5] was 1 A450 class, the Classification [6] was 1 A450 class and the Classification [4] was 1 A450 class. The Classification [7] was 2 A450 class.

With EALQPEPGRKRIPLTRTTTF (modifications not checked) [somatostatin receptor 4] the Classification [8] was 1 A450 class, the Classification [9] was 1 A450 class and the Classification [10] was 1 A450 class. The Classification [4] was 1 A450 class, the Classification [7] was 1 A450 class and the Classification [11] was 1 A450 class.

TALRIKKTLAKMVESQDVKI (modifications not checked) [bone morphogenetic protein receptor] showed a Classification [3] of 1 A450 class, a Classification [12] of 1 A450 class and a Classification [13] of 1 A450 class. For the same binder, the Classification [14] was 1 A450 class.

Binder ESSGTQSPKRHSGSYLVTSV (modifications not checked) [APC-adenomatous polyposis coli protein] has a Classification [15] of 1 A450 class, a Classification [9] of 1 A450 class and a Classification [10] of 5 A450 class. It also gave a Classification [2] of 1 A450 class, a Classification [16] of 2 A450 class and a Classification [17] of 1 A450 class. It also gave a Classification [18] of 1 A450 class, a Classification [3] of 1 A450 class and a Classification [6] of 1 A450 class. The Classification [19] was 1 A450 class, the Classification [4] was 1 A450 class and the Classification [20] was 1 A450 class. For the same binder, the Classification [21] was 4 A450 class, the Classification [22] was 2 A450 class and the Classification [23] was 5 A450 class. It also gave a Classification [24] of 3 A450 class.

For PVYIVQEMPPQSPANIYYKV (modifications not checked) [ephrin B1], the Classification [3] was 1 A450 class, the Classification [4] was 1 A450 class and the Classification [12] was 1 A450 class. For the same binder, the Classification [13] was 1 A450 class, the Classification [14] was 1 A450 class and the Classification [25] was 2 A450 class.

Binder KKGTYLTDETHREVKFTSL (modifications not checked) [CD46] has a Classification [9] of 1 A450 class, a Classification [3] of 5 A450 class and a Classification [26] of 2 A450 class. It also gave a Classification [4] of 4 A450 class, a Classification [27] of 1 A450 class and a Classification [7] of 1 A450 class.

Binder SLKPGTVLPPPPYRHRNTVV (modifications not checked) [ErbB-4 receptor] has a Classification [5] of 1 A450 class, a Classification [10] of 1 A450 class and a Classification [28] of 1 A450 class. It also gave a Classification [19] of 1 A450 class, a Classification [21] of 1 A450 class and a Classification [23] of 1 A450 class. For the same binder, the Classification [29] was 2 A450 class.

With RNIEEVYVGGKQVVPFSSSV (modifications not checked) [Nedasin (s-form)] the Classification [15] was 1 A450 class, the Classification [30] was 1 A450 class and the Classification [10] was 3 A450 class. The Classification [16] was 1 A450 class, the Classification [31] was 1 A450 class and the Classification [6] was 1 A450 class. For the same binder, the Classification [4] was 2 A450 class, the Classification [7] was 1 A450 class and the Classification [21] was 2 A450 class. For the same binder, the Classification [23] was 3 A450 class and the Classification [24] was 5 A450 class.

With SSKSKSSEESQTFFGLYKL (modifications not checked) [Fas Ligand] the Classification [32] was 2 A450 class, the Classification [1] was 2 A450 class and the Classification [31] was 3 A450 class. It also gave a Classification [3] of 5 A450 class, a Classification [26] of 2 A450 class and a Classification [4] of 5 A450 class. The Classification [7] was 4 A450 class.
